The record followed here is paper PMC6053953.

For experiment [1], the target named is cleaved human peroxiredoxin 3 (human). In words: native MS; 20 uM protein (monomer) buffer exchanged from pH 8.0 into 100 mM ammonium acetate, pH 4.0; spectra from 60 seconds (0 hours) to 3 hours after exchange; step: ring-to-ring stacking.
For experiment [2] the target is unchanged. In words: AUC; sedimentation velocity, 20 C, 20 uM protein (monomer) in 100 mM ammonium acetate, pH 4.0; c(s) distribution; step: ring-to-ring stacking.
Experiment [3] has the same target. In words: native MS; protein buffer exchanged from 100 mM ammonium acetate, pH 4.0, back into pH 8.0 before injection; step: stacks of rings back to single rings.
Experiment [4] shares this target. In words: native MS; 20 uM protein (monomer) in 100 mM ammonium acetate, pH 8.0; trap collision energy 20 V; step: chains to the dodecameric ring.
The target is the same in experiment [5]. In words: SEC-SLS; Superdex 200 Increase 10/300 GL with refractive index and right-angle light scattering, 28 C; 20 uM protein in 100 mM ammonium acetate, pH 8.0; step: chains to the dodecameric ring.
In experiment [6] the target is His6-tagged human peroxiredoxin 3 (human). The experiment in a line: native MS; 20 uM protein (monomer) buffer exchanged from pH 8.0 into 100 mM ammonium acetate, pH 4.0; spectra from 60 seconds (0 hours) to 3 hours after exchange; step: ring-to-ring stacking.
The target is the same in experiment [7]. The experiment in a line: AUC; sedimentation velocity, 20 C, 20 uM protein (monomer) in 100 mM ammonium acetate, pH 4.0; c(s) distribution; step: ring-to-ring stacking.
Experiment [8] shares this target. The experiment in a line: native MS; protein buffer exchanged from 100 mM ammonium acetate, pH 4.0, back into pH 8.0 before injection; step: stacks of rings back to single rings.
Experiment [9] has the same target. In words: native MS; 20 uM protein (monomer) in 100 mM ammonium acetate, pH 8.0; trap collision energy 20 V; step: chains to the dodecameric ring.
Experiment [10] shares this target. In words: SEC-SLS; Superdex 200 Increase 10/300 GL with refractive index and right-angle light scattering, 28 C; 20 uM protein in 100 mM ammonium acetate, pH 8.0; step: chains to the dodecameric ring.

Values joined by “and” are separate entries in the source; they are usually repeats but may differ in a detail not shown here. Equal entries are not always repeated.

For “cleaved human peroxiredoxin 3 (natural protein)”, the rings in a stack is 6 rings in experiment [1]; 1 rings and 2 rings in [3]. This substance displayed a rings in the most populated stack in [1] of 3 rings. The same substance returned a rings in a stack (main population) in experiment [2] of 34 rings. Besides, the stoichiometry N in experiment [4] and in experiment [5] was 12 in each case.

Turning to “His6-tagged human peroxiredoxin 3 (natural protein)”, the rings in a stack in experiment [6] is 2 to 3 rings; in experiment [7], 2 rings and 4 rings; in experiment [8], 1 rings. The stoichiometry N in experiment [9] and in [10] was 12 each time.

One may read the stoichiometry N as a count of units in the complex or per binding partner.
